According to paper PMC7188823, “The BRCA2-MEILB2-BRME1 complex governs meiotic recombination and impairs the mitotic BRCA2-RAD51 function in cancer cells” (Nature Communications, 2020):

T1: MEILB2 C-terminus (a.a. 87–338) (Mus musculus (Mouse), UniProt Q9D4G2)
T1 chain: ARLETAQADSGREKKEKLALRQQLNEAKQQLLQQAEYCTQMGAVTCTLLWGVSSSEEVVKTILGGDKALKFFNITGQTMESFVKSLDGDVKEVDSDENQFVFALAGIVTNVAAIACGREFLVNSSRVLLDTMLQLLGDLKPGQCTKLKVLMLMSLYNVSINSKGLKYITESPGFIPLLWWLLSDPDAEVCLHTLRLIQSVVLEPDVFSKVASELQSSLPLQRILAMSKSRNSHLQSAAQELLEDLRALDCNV

B1: BRCA2-MBD fragment (a.a. 2219–2285) (domain or fragment, mouse, UniProt P97929 2219-2285, looked up)
chain: KRGGVTVDAVGQPPIKRSLLNEFDRIIESKGKSLTPSKSTPDGTVKDRSLFTHHMSLEPVTCGPFCS
notes: BRCA2, mouse, a.a; 2219-2285 (7.4 kDa in theory by the text); the His-Smt3 tag holds for the protein expressed alone (pSmt3); in the co-expression (pET-Duet) BRCA2 was untagged; also called mBRCA2 a.a; 2219–2285; source: E. coli BL21(DE3), purified (Ni-NTA, Ulp1 cleavage, size-exclusion chromatography, cation exchange); expressed alone or co-expressed untagged with His-Smt3-MEILB2 (a.a. 87–338)
B2: MEILB2 α1 (a.a. 18–55; tag removed) (domain or fragment, mouse, UniProt Q9D4G2 18-55, looked up)
chain: MESKEEFVKVRKKDLERLTTEVMQIRDFLPRILNGELL
notes: MEILB2/HSF2BP, mouse, α1, a.a; 18-55; source: E. coli BL21 (DE3), purified (Ni-NTA, amylose, ion exchange, TEV cleavage, size-exclusion chromatography); not shown: MBP, N-terminal, cleaved
B3: MEILB2 C-terminus (a.a. 87–338) (domain or fragment, mouse, UniProt Q9D4G2 87-338, looked up)
chain: T1 chain
notes: MEILB2/HSF2BP, mouse, a.a; 87-338 (27.9 kDa in theory); pET-Duet for the co-expression, pSmt3 for the protein alone; also called mMEILB2 a.a; 87–338; source: E. coli BL21(DE3), purified (Ni-NTA, Ulp1 cleavage, cation exchange, size-exclusion chromatography); expressed alone or co-expressed with BRCA2 (a.a. 2219–2285); not shown: 10x His-Smt3, N-terminal, cleaved

Columns and labels:
[1] = molecular target: MEILB2 α1 (a.a. 18–55; tag removed) (mouse) (UniProt Q9D4G2); test: SEC-MALS; Superdex 200 Increase 10/300 GL; 20 mM Tris (pH 8.0), 150 mM KCl, 2 mM DTT; samples at >1 mg/ml; MEILB2 fragments alone or as purified complexes with BRME1-MBD
[2] = molecular target: MEILB2 α1+2 (tag removed) (mouse); test: as above
[3] = molecular target: B3; test: SEC-MALS; purified MEILB2 (a.a. 87–338)-BRCA2 (a.a. 2219–2285) heterocomplex; 500 µg on Superdex 200 10/300 at 0.5 ml/min; conditions: both partners purified
[4] = molecular target: T1, MEILB2 C-terminus (a.a. 87–338); test: co-expression co-purification, SEC and SEC-MALS
[5] = molecular target: the molecule itself; test: SEC-MALS; Superdex 200 Increase 10/300 GL; 20 mM Tris (pH 8.0), 150 mM KCl, 2 mM DTT; samples at >1 mg/ml; MEILB2 fragments alone or as purified complexes with BRME1-MBD
[6] = molecular target: the molecule itself; test: SEC-MALS; individual proteins; 500 µg on Superdex 200 10/300 at 0.5 ml/min
[7] = molecular target: the molecule itself; test: SEC-MALS; purified MEILB2 (a.a. 87–338)-BRCA2 (a.a. 2219–2285) heterocomplex; 500 µg on Superdex 200 10/300 at 0.5 ml/min

BRME1-MBD (a.a. 519–600), recombinant, His-tagged (from UniProt Q6DIA7 519-600) (domain or fragment)
stoichiometry N (BRME1-MBD per MEILB2 chain (2:2)) [1]: 1 | stoichiometry N (BRME1-MBD per MEILB2 chain (2:2)) [2]: 1

B1
stoichiometry N [3]: ~0.5 BRCA2 per MEILB2 chain (4:2 MEILB2:BRCA2) | binding result [4]: binds

B2
stoichiometry N [5]: 4 chains in the oligomer

B3
stoichiometry N [6]: 2 chains in the oligomer | stoichiometry N [7]: 4 chains in the oligomer
